{"source": "patent US20160206741", "test_system": "T1, GRRRGK (SEQ ID NO: 1) oligopeptide crosslink within P(MAA-co-NVP) microgels", "T1 sequence": "GRRRGK", "data": [{"substance": "trypsin", "values": [{"measurement": "relative turbidity of microgel solutions over time", "value": "reduced relative turbidity as a function of time and trypsin concentration"}, {"measurement": "trypsin activity on the BAEE substrate (absorbance at 253 nm) after 90 min with 0-6 mg/ml microgels", "value": "trypsin activity on the BAEE substrate is reduced as microgel concentration increases"}]}]}
